# Data from IntAct's records for PubMed 26836588.
# B1: E3 ubiquitin-protein ligase TRIM22 (Homo sapiens), Q8IYM9 (parent)
# chain: MDFSVKVDIEKEVTCPICLELLTEPLSLDCGHSFCQACITAKIKESVIISRGESSCPVCQTRFQPGNLRPNRHLANIVERVKEVKMSPQEGQKRDVCEHHGKKLQIFCKEDGKVICWVCELSQEHQGHQTFRINEVVKECQEKLQVALQRLIKEDQEAEKLEDDIRQERTAWKNYIQIERQKILKGFNEMRVILDNEEQRELQKLEEGEVNVLDNLAAATDQLVQQRQDASTLISDLQRRLRGSSVEMLQDVIDVMKRSESWTLKKPKSVSKKLKSVFRVPDLSGMLQVLKELTDVQYYWVDVMLNPGSATSNVAISVDQRQVKTVRTCTFKNSNPCDFSAFGVFGCQYFSSGKYYWEVDVSGKIAWILGVHSKISSLNKRKSSGFAFDPSVNYSKVYSRYRPQYGYWVIGLQNTCEYNAFEDSSSSDPKVLTLFMAVPPCRIGVFLDYEAGIVSFFNVTNHGALIYKFSGCRFSRPAYPYFNPWNCLVPMTVCPPSS
# Variants of: B1
# Settings: with nod2_human NOD2, Q9HC29
# nod2_human NOD2, Q9HC29, sequence (Q9HC29 whole entry): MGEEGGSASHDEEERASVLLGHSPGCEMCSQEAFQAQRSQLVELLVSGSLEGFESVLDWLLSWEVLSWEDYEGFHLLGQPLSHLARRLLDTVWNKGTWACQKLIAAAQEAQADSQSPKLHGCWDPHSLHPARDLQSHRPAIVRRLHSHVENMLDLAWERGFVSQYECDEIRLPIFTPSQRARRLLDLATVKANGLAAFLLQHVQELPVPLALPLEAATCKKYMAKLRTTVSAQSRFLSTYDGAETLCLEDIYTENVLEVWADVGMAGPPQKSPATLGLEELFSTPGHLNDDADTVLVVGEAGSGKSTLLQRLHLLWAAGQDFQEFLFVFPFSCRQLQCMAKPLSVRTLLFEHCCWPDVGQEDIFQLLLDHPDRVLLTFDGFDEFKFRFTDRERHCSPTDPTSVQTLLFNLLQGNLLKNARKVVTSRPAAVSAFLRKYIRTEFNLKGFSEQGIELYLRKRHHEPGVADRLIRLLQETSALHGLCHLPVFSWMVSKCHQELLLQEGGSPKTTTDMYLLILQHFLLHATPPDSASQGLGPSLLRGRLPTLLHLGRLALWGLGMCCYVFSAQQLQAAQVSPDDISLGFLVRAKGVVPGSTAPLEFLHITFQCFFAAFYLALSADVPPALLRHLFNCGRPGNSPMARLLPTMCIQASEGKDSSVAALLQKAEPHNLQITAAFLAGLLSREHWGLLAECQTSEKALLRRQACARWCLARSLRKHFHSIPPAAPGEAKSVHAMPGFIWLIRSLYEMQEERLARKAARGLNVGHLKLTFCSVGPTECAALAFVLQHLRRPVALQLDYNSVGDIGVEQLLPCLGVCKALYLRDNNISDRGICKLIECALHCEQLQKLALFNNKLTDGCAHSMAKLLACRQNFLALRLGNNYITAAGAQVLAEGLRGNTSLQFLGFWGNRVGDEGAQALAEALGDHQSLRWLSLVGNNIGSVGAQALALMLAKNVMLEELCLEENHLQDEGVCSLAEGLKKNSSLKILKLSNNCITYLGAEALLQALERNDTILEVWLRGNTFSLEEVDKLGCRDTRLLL
row,Variant,effect of a mutation on the interaction
1,R150T,with no effect
2,R442C,disrupting interaction strength
3,S244L,decreasing interaction strength
4,R321K,decreasing interaction strength
